In experiment [1] the target is T1, human ASGR1 (asialoglycoprotein receptor 1) on cells (human, UniProt P07306 1-291).
T1 construct: whole, on cells; also called HepG2 cells; CHO-S cells transfected with human ASGR1 full length DNA
T1 sequence (looked up): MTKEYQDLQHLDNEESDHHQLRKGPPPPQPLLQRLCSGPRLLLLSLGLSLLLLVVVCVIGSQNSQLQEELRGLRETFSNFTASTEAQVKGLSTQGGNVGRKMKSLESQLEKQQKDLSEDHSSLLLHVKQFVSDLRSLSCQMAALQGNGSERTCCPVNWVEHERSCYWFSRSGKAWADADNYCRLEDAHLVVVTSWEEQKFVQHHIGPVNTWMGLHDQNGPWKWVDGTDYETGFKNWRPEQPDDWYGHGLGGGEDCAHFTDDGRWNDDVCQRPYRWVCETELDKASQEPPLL
Kind of experiment: Guava flow cytometry screen on HepG2 cells. (A flow cytometer gives signals particle by particle.)

In experiment [2] the target is T1, human ASGR1 (asialoglycoprotein …). Kind of experiment: competition flow cytometry on CHO-S cells with human ASGR1; 200 nM F(ab')2 against 33 nM GalNac-hFc.
For experiment [3], the target named is T2, Cynomolgus macaque ASGR1 on CHO-S cells (Cynomolgus macaque).
T2 construct: whole, on cells; also called Cynomologous ASGR1
Description: Guava flow cytometry on CHO-S cells expressing cynomolgus ASGR1. As for the experimental part: (§1) Anti-human ASGR1 antibodies of this disclosure were examined for cross-reactivity with Cynomolgus macaque and rat ASGR1. Briefly, sequence encoding Cynomolgus macaque or rat ASGR1 was transiently transfected into CHO-S cells. Transfected cells were before performing cell binding assay. A total of about 1.5×10⁴ transfected cells/well were added to 96-well V-bottom assay plate, incubated at 37° C., 5% CO2 for 48-72 hours, and then washed with culture medium before adding 100 μl of each ASGR1 antibody at different concentrations starting from 100 nM and 3-fold dilutions to a total of eight wells. The cells with antibody were incubated for 40 minutes at 4° C., then washed three times with 200 μl of fresh culture medium. To each well was added 50 μl PE conjugated goat anti-human Fc (SouthemBiotech) at 1:200 dilution in culture medium and then incubated at 4° C. for 20 minutes. After washing the plate once, the treated cells were resuspended in 200 μl culture medium and then the stained cells were analyzed on GUAVA® using Incyte software.

The target of experiment [4] is T2, Cynomolgus macaque ASGR1 on CHO-S cells. Kind of experiment: Guava flow cytometry on CHO-S cells expressing cynomolgus ASGR1 (repeat of Table 15). As for the experimental part:
as §1

For experiment [5], the target named is T1, human ASGR1 (asialoglycoprotein …). Description: flow cytometry on HepG2 cells, anti-human IgG PE secondary, MFI (Geo Mean). As for the experimental part: Briefly, 5×10⁴ HepG2 cells/well were contacted with titrating concentrations of anti-ASGR1 antibodies in FACS Buffer (FB: PBS+2% FBS+1 mM CaCl₂)) for 30 minutes at 4° C. Cells were washed twice in FB, then incubated in anti-human IgG PE secondary for 30 minutes at 4° C. Cells were washed twice in FB, then analyzed by flow cytometry.

The target is the same in experiment [6]. Description: Guava flow cytometry screen on HepG2 cells. The source holds these as a separate data set.

Like-named read-outs stand apart in the source and are kept apart here.

What is called EC50 is the concentration needed to bring the measured effect to its halfway point. The low end stands for an effect from little substance, the high end for a need for much substance. By EC50 (read off the curve) is commonly meant the concentration giving half of the maximal effect. Low values mean a more potent agent, high ones a less potent agent.

B1: hzL4L-5 (antibody, IgG1, V domains shown)
VH: QVQLQESGPGLVKPSQTLSLTCTVSGYSISSDYAWNWIRQHPGKGLEWIGYISYSGSTRYNPSLKSRISITRDTSKNQFSLKLSSVTAADTAVYYCARRYRYDEGYGMDYWGQGTTVTVSS
VL: DIQMTQSPSSLSASVGDRVTITCRASENIYSNLAWYQQKPGKAPKLLIYAATNLADGVPSRFSGSGSGTDFTLTISSLQPEDFATYYCQHFWGTPPWTFGGGTKVEIK
notes: IgG1, kappa
On to B1, for which, in experiment [1], the binding result is reported as “binds”.

B2: hzL4L-2 (antibody, IgG1, V domains shown)
VH: QVQLQESGPGLVKPSQTLSLTCTVSGGSITSDYAWNWIRQHPGKGLEWIGYISYSGSTRYNPSLKSRISITRDTSKNQFSLKLSSVTAADTAVYYCARRYRYDEGYGMDYWGQGTTVTVSS
VL: DIQMTQSPSSLSASVGDRVTITCRASENIYSNLAWYQQKPGKAPKLLIYAATNLADGVPSRFSGSGSGTDFTLTISSLQPEDFATYYCQHFWGTPPWTFGGGTKVEIK
notes: IgG1, kappa
Regarding B2, in experiment [1], the binding result was “binds”.

B3: hzL4L-10 (antibody, IgG1, V domains shown)
VH: QVQLQESGPGLVKPSQTLSLTCTVSGYSITSDYAWNWIRQHPGKGLEWIGYISYSGSTRYNPSLKSRISITRDTSKNQFSLKLSSVTAADTAVYYCARRYRYDEGYGMDYWGQGTTVTVSS
VL: DIQMTQSPSSLSASVGDRVTITCRASENIYSNLAWYQQKPGKAPKLLIYAATNLASGVPSRFSGSGSGTDFTLTISSLQPEDFATYYCQHFWGTPPWTFGGGTKVEIK
notes: IgG1, kappa
As to B3, the binding result in experiment [1] is “binds”.

B4: hzL4L-6 (antibody, IgG1, V domains shown)
VH: QVQLQESGPGLVKPSQTLSLTCTVSGYSITSDYAWNWIRQHPGKGLEWIGYISYSGSTRYNPSLKSRVTITRDTSKNQFSLKLSSVTAADTAVYYCARRYRYDEGYGMDYWGQGTTVTVSS
VL: DIQMTQSPSSLSASVGDRVTITCRASENIYSNLAWYQQKPGKAPKLLIYAATNLADGVPSRFSGSGSGTDFTLTISSLQPEDFATYYCQHFWGTPPWTFGGGTKVEIK
notes: IgG1, kappa
Regarding B4, the binding result in experiment [1] is reported as “binds”.

B5: F(ab')2 fragment of hzL4L-14 (F(ab')2)
VH: QVQLQESGPGLVKPSQTLSLTCTVSGYSISSDYAWNWIRQHPGKGLEWIGYISYSGSTRYNPSLKSRVTITRDTSKNQFSLKLSSVTAADTAVYYCARRYRYDEGYGMDYWGQGTTVTVSS
VL: DIQMTQSPSSLSASVGDRVTITCRASENIYSNLAWYQQKPGKAPKLLIYAATNLAEGVPSRFSGSGSGTDFTLTISSLQPEDFATYYCQHFWGTPPWTFGGGTKVEIK
For B5, the “% Blocking GalNac Binding” value in experiment [2] was found to be 90.7%.

B6: ASGR1 mAb-C (antibody, V domains shown)
VH: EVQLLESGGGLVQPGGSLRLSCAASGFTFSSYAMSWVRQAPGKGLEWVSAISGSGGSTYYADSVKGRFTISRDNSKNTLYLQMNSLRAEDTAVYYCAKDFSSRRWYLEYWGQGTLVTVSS
VL: SSELTQDPAVSVALGQTVRITCQGDSLRSYYASWYQQKPGQAPVLVIYGKNNRPSGIPDRFSGSSSGNTASLTITGAQAEDEADYYCNSLERIGYLSYVFGGGTKLTVL
notes: control with CDRs of anti-ASGR1 antibody 4F3; mouse IgG2a or human IgG1 isotype by assay; also called 4F3
For the molecule B6, the concentration for a half-maximal effect (EC50) in experiment [3] and in experiment [4] was 2.35 nM throughout. Also, in experiment [5], the “EC50 (read off the curve)” value is roughly 0.3 µg/mL.

B7: F(ab')2 fragment of ASGR1 mAb-C (F(ab')2)
VH: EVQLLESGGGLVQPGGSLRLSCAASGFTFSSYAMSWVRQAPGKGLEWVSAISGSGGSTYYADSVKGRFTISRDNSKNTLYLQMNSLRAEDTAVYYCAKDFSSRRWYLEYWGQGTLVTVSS
VL: SSELTQDPAVSVALGQTVRITCQGDSLRSYYASWYQQKPGQAPVLVIYGKNNRPSGIPDRFSGSSSGNTASLTITGAQAEDEADYYCNSLERIGYLSYVFGGGTKLTVL
modifications: F(ab')2 fragment: two Fab arms joined at the hinge, with the Fc removed.
For B7, the “% Blocking GalNac Binding” value in experiment [2] is -5.4%.

B8: F(ab')2 fragment of hzH8K-1 (F(ab')2)
VH: QVQLQESGPGLVKPSQTLSLTCTVSGGSISSDYAWNWIRQHPGKGLEWIGYRSYRGSTSYNPSLKSRVTISVDTSKNQFSLKLSSVTAADTAVYYCARRGYYGSSSHWYFDVWGQGTTVTVSS
VL: DIQMTQSPSSLSASVGDRVTITCRASENIYSYLAWYQQKPGKAPKLLIYNAKTLAEGVPSRFSGSGSGTDFTLTISSLQPEDFATYYCQHHYGTPLTFGGGTKVEIK
For the molecule B8, the “% Blocking GalNac Binding” value in experiment [2] came to 81.3%.

B9: F(ab')2 fragment of J4F (F(ab')2)
VH: QVQLQQSGDDLVKPGASVKLSCKASGYTFTSYWINWIKQRPGQGLEWIGRIVPGSGSTYYNEMFKDKATLTVDTSSSTAYIQLSSLSSEDSAVYFCARKPNFDVWGAGTTVTVSS
VL: DIVMTQSQKFMSTSVGDRVSVTCKASQNVGTNVAWYQQKPGQSPKAVIYSASYRFSGVPDRLTGSGSGTDFTLTITNVQSEDLAEYFCQQYNSYPLTFGAGTKLELK
For the molecule B9, the “% Blocking GalNac Binding” value in experiment [2] is -32.1%.

B10: hzG2D-17 (antibody, human IgG1, kappa, V domains shown)
VH: QVQLVQSGAEVKKPGASVKVSCKASGYTFTGYYMHWVRQAPGQRLEWMGRINPNNGATNYNQNFKDKASLTVDTSASTAYMELSSLRSEDTAVYYCARVNFYYWGQGTTLTVSS
VL: DIKMTQSPSSMYASLGERVTITCKASQVINSYLSWFQQKPGKSPETLIYRANTLVDGVPSRFSGSGSGQDYSLTISSLEYEDLGIYYCLQYAEFPYTFGGGTKLEIKR
notes: humanized VH with the mouse G2D VL
As for B10, the binding result in experiment [6] is reported as “binds”.

B11: hzG2D-11 (antibody, human IgG1, kappa)
heavy: not shown
light: DIQMTQSPSSLSASVGDRVTITCKASQVINSYLSWFQQKPGKAPKSLIYRANTLVDGVPSRFSGSGSGTDFTLTISSLQPEDFATYYCLQYAEFPYTFGGGTKVEIKRTVAAPSVFIFPPSDEQLKSGTASVVCLLNNFYPREAKVQWKVDNALQSGNSQESVTEQDSKDSTYSLSSTLTLSKADYEKHKVYACEVTHQGLSSPVTKSFNRGEC
Take B11: the binding result in experiment [6] is recorded as “binds”.

B12: hzG2D-20 (antibody, human IgG1, kappa)
heavy: not shown
light: DIQMTQSPSSLSASVGDRVTITCKASQVINSYLSWFQQKPGKAPKSLIYRANTLVDGVPSRFSGSGSGTDFTLTISSLQPEDFATYYCLQYAEFPYTFGGGTKVEIKRTVAAPSVFIFPPSDEQLKSGTASVVCLLNNFYPREAKVQWKVDNALQSGNSQESVTEQDSKDSTYSLSSTLTLSKADYEKHKVYACEVTHQGLSSPVTKSFNRGEC
Regarding B12, the binding result in experiment [6] was “binds”.

B13: F(ab')2 fragment of G2D (F(ab')2)
VH: EVQLQQSGPELVKPGASVKISCKASGYSFTGYYMHWVKQSHVKSLEWIGRINPNNGATNYNQNFKDKASLTVDKSSSTAYMEFHSLTSEDSAVYYCTSVNFYYWGQGTTLTVSS
VL: DIKMTQSPSSMYASLGERVTITCKASQVINSYLSWFQQKPGKSPETLIYRANTLVDGVPSRFSGSGSGQDYSLTISSLEYEDLGIYYCLQYAEFPYTFGGGTKLEIK
With B13, the “% Blocking GalNac Binding” value in experiment [2] is -0.3%.

B14: F(ab')2 fragment of K2E (F(ab')2)
VH: QVQLQQSAAELARPGASVKMSCKASGYTFTSYTMHWVKQRPGQGLEWIGYISPSSGYTEYNQKFKDKTTLTADKSSSTAYMQLSSLTSEDSAVYYCARKFDYWGQGTTLTVSS
VL: DIKMTQSPSSMYASLGERVTITCKASQDINSYLSWFQQKPGKSPKTLIYRANRLVDGVPSRFSGSGSGQDFSLTISSLEYEDMGIYYCLQYDEFPFTFGSGTKLEIK
B14: the “% Blocking GalNac Binding” value in experiment [2] was 10%.
